Experimental data as given in the nanobody polyreactivity screen of Harvey et al. (2022).

Assay: yeast display, Sf9 membrane polyspecificity reagent, FACS + sequencing; frameworks hold sequencing errors
Method in brief: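 Galactose induction of a Saccharomyces cerevisiae BJ5465 synthetic nanobody display library ran 36–48 hours. The cells were then stained for 1 hour at 4 °C with 10% biotinylated, detergent-solubilized Sf9 membrane reagent, pulled down on streptavidin microbeads and FACS-sorted into low and high (top ~1%) gates on expression and reagent-binding fluorescence. Labels for polyreactivity follow the gate of origin.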

Sequence	polyreactivity (PSR sort gate)
QVQLVESGGGLVQAGGSLRISCAASGRTFPGNAMGCYRQAPGKERELVAAISYSGGRTYYADSVKGRFTISRDNAKNTVYLQMNSLNPEDTAVYYCNRTPYSDYVFAYDYWGQGTQVTVSS	high polyreactivity
QVQLVESGGGLVQAGGSLRLSCAASGLILNYYTMGSYRQAPGKERELVATISSSTGSTYYADSVKGRFTISRDNAKNTVYLQMNSLKPEDTAVYYCAADHWSYWQIYEYWGQGTQVTVSS	low polyreactivity
QVQLVESGGGLVQAGGSLRLSCAASGSIFEYYAMGWYRQAPGKEREFVAAISDNGDSTYYADSVKGRFTISRDNAKNTVYLQMNSLKPEDTAVYYCAVRKAYQYGFYYWGQGTQLTVSS	low polyreactivity
QVQLVESGGGLVQAGGSLRLSCAASGLTFQEYAMGWYRQAPGKERELVAAISWSGGSTYYADSVKGRFTISRDNAKNTVYLQMNSLKPEDTAVYYCAAEAYEEFITGWYAYDYWGQGTQVTVSS	high polyreactivity
QVQLEESGGGLVQAGGSLRLSCAASGRTFYYNAMGSSRQAPGKERELVAGITYRGGSTYYADSVKGRFTISRDNAKNTVYLQMNSLKPEDTAVYYCAVKYSWLSRFNYWGLGTQVTVSS	high polyreactivity
QVHLVESGGGLVQAGGSLRLSCAASGRIFGEYAMGWYRQAPGKERELVAAISYRGGRTYYADSVKGRFTISRDNAKNTVYLQMNSLKPEDTAVYYCAKTNRDEYDYWGQGTQVTVSS	high polyreactivity
KVQLVESGGGLVQAGGSLRLSCAASGFIFYRNTMGWYRQAPGKEREFVAAIRWRGGSTYYADSVKGRFTISRDNAKNTVYLQMNSLKPEDTAVYYCAADTRPGYSGFEYWGQGTQVTVSS	high polyreactivity
QVHLVESGGGLVQAGCSLRLSCAASGYIFVRNAMGWYRQAPGKERELVAAISGSGGSTYYADSVKGRFTISRDNAKNTVYLQMNSLKPEDTAVYYCASDPYHWRWGWRHDYWGQGTQVTVSS	low polyreactivity
QVQLVESGGGLVQAAGSLRLSFAASGSIFGRYPMGWYRQAPGKERELVAAISTGDSTYYADSVKGRFTISRDNAKNTVYLQMISLKPEDTAVYYCNRRGRRGYDYWGQGTQVTVSS	high polyreactivity
QVQLVESGGGLVQAGGSLRLSCAASGFTFLYNVMGWYRQAPGKERELVAAISQSGTDTYYADSVKGRFTISRDNAKNTVYLQKNSLKPEDTAVYYCATEYYSQPRDDYWGQGTQVTVSS	low polyreactivity
QVQLVESGGGLVQAGGSLRLSCAASGSTFVTYTMGWYRQAPGKERELVAAISWSGDTTYADSVKGRFTISRDNAKNTVYLQMNSLKPVDTAVYYCAADDDWSGVEFDYLGQGTQVTVSS	low polyreactivity
QVQLVESGGGLVQAGGSLRLSCAASGRILQVEYAMGWNIQAPGKERELVAAITESDGSTSYADSVKGRFTISRDNAKNTVYLQMNSLKPEDTAVYYCNVVRGYPNGGYDYWGQGTQVTVSS	low polyreactivity
QVQLVESGGGLVQAGGSLRLSCAASGIIFHKYSMGWYRQAPGKERELVAVITWRGGTTYYADSVKGRFTISRDNAKNTVYLQMNSLKPEDTAVYYCAAKDRSPRVRYQYEYWGQGTQVTVSS	high polyreactivity
QVQLVESGGGLVQAGGSLRLSCAASGAILDEYSMVWYRPAPGKAREFVAGIRTIGGSTYYADSVKGRFTISRENAKNTVYLQLNSLIPEDTADNYCAADGRTHEPQGWLGGYDYCGQGTQVTVSS	low polyreactivity
QVQLVESGGGLVQAGGSLRLSCADSGITFWRYAMGWYRHAPGKERELVAAISWSGGNTYYADSVKGRFTISRDNAKNTVYLQMNSLKPEDTAVYYCATSRTYVIYDYWGQGTQVTVSS	low polyreactivity
QVQLVESGGGLVQAGGSLRLSCAASGSIFTEYAMGWYRQAPGKERELVAAISWSGATTYYADSVKGRFTISRDNAKNTVYLQMNSLKPEDTAVYYCAARWANRSYEYWGQGTQVSVSS	low polyreactivity
QVQLVESGGGLVQAGGSLRLSCAASGSIFYRNAMGWYRQAPGKERELVAAITSRGGRTYYADSVKGRFTISRDNAKNTVYLQMTSLKPEDTAVYYCAADYRYPAHSYGYWGQGTQVTVSS	high polyreactivity
